Sequences and labels used below:
B1: peptide 35 (Ac-EDDD(Obtyr)…-NH2) (peptide)
peptide: Ac-EDDD[Obtyr]IDWGPTSDDD-NH2
SMILES: CC[C@H](C)[C@H](NC(=O)[C@H](Cc1ccc(OCc2ccccc2)cc1)NC(=O)[C@H](CC(=O)O)NC(=O)[C@H](CC(=O)O)NC(=O)[C@H](CC(=O)O)NC(=O)[C@H](CCC(=O)O)NC(C)=O)C(=O)N[C@@H](CC(=O)O)C(=O)N[C@@H](Cc1c[nH]c2ccccc12)C(=O)NCC(=O)N1CCC[C@H]1C(=O)N[C@H](C(=O)N[C@@H](CO)C(=O)N[C@@H](CC(=O)O)C(=O)N[C@@H](CC(=O)O)C(=O)N[C@@H](CC(=O)O)C(N)=O)[C@@H](C)O
B2: peptide 33 (Ac-EDDD(Obtyr)…-NH2) (peptide)
peptide: Ac-EDDD[Obtyr]IDWYDSDDD-NH2
SMILES: CC[C@H](C)[C@H](NC(=O)[C@H](Cc1ccc(OCc2ccccc2)cc1)NC(=O)[C@H](CC(=O)O)NC(=O)[C@H](CC(=O)O)NC(=O)[C@H](CC(=O)O)NC(=O)[C@H](CCC(=O)O)NC(C)=O)C(=O)N[C@@H](CC(=O)O)C(=O)N[C@@H](Cc1c[nH]c2ccccc12)C(=O)N[C@@H](Cc1ccc(O)cc1)C(=O)N[C@@H](CC(=O)O)C(=O)N[C@@H](CO)C(=O)N[C@@H](CC(=O)O)C(=O)N[C@@H](CC(=O)O)C(=O)N[C@@H](CC(=O)O)C(N)=O
B3: peptide 34 (Ac-EDDD(Oetyr)…-NH2) (peptide)
peptide: Ac-EDDD[Oetyr]IDWGPTSDDD-NH2
SMILES: CCOc1ccc(C[C@H](NC(=O)[C@H](CC(=O)O)NC(=O)[C@H](CC(=O)O)NC(=O)[C@H](CC(=O)O)NC(=O)[C@H](CCC(=O)O)NC(C)=O)C(=O)N[C@H](C(=O)N[C@@H](CC(=O)O)C(=O)N[C@@H](Cc2c[nH]c3ccccc23)C(=O)NCC(=O)N2CCC[C@H]2C(=O)N[C@H](C(=O)N[C@@H](CO)C(=O)N[C@@H](CC(=O)O)C(=O)N[C@@H](CC(=O)O)C(=O)N[C@@H](CC(=O)O)C(N)=O)[C@@H](C)O)[C@@H](C)CC)cc1
B4: peptide 21 (Ac-EDDD(2Nala)…-NH2) (peptide)
peptide: Ac-EDDD[2Nal]IDWGPTSDDD-NH2
SMILES: CC[C@H](C)[C@H](NC(=O)[C@H](Cc1ccc2ccccc2c1)NC(=O)[C@H](CC(=O)O)NC(=O)[C@H](CC(=O)O)NC(=O)[C@H](CC(=O)O)NC(=O)[C@H](CCC(=O)O)NC(C)=O)C(=O)N[C@@H](CC(=O)O)C(=O)N[C@@H](Cc1c[nH]c2ccccc12)C(=O)NCC(=O)N1CCC[C@H]1C(=O)N[C@H](C(=O)N[C@@H](CO)C(=O)N[C@@H](CC(=O)O)C(=O)N[C@@H](CC(=O)O)C(=O)N[C@@H](CC(=O)O)C(N)=O)[C@@H](C)O
B5: peptide 32 (Ac-EDDD(Oetyr)…-NH2) (peptide)
peptide: Ac-EDDD[Oetyr]IDWYDSDDD-NH2
SMILES: CCOc1ccc(C[C@H](NC(=O)[C@H](CC(=O)O)NC(=O)[C@H](CC(=O)O)NC(=O)[C@H](CC(=O)O)NC(=O)[C@H](CCC(=O)O)NC(C)=O)C(=O)N[C@H](C(=O)N[C@@H](CC(=O)O)C(=O)N[C@@H](Cc2c[nH]c3ccccc23)C(=O)N[C@@H](Cc2ccc(O)cc2)C(=O)N[C@@H](CC(=O)O)C(=O)N[C@@H](CO)C(=O)N[C@@H](CC(=O)O)C(=O)N[C@@H](CC(=O)O)C(=O)N[C@@H](CC(=O)O)C(N)=O)[C@@H](C)CC)cc1
B6: EDDSDVWW(Aphe)GADTD (peptide)
peptide: Ac-EDDSDVWW[Phe(4-NH2)]GADTD-NH2
SMILES: CC(=O)N[C@@H](CCC(=O)O)C(=O)N[C@@H](CC(=O)O)C(=O)N[C@@H](CC(=O)O)C(=O)N[C@@H](CO)C(=O)N[C@@H](CC(=O)O)C(=O)N[C@H](C(=O)N[C@@H](Cc1c[nH]c2ccccc12)C(=O)N[C@@H](Cc1c[nH]c2ccccc12)C(=O)N[C@@H](Cc1ccc(N)cc1)C(=O)NCC(=O)N[C@@H](C)C(=O)N[C@@H](CC(=O)O)C(=O)N[C@H](C(=O)N[C@@H](CC(=O)O)C(N)=O)[C@@H](C)O)C(C)C
B7: EDDSDVWW(2Nala)GADTD (peptide)
peptide: Ac-EDDSDVWW[2Nal]GADTD-NH2
SMILES: CC(=O)N[C@@H](CCC(=O)O)C(=O)N[C@@H](CC(=O)O)C(=O)N[C@@H](CC(=O)O)C(=O)N[C@@H](CO)C(=O)N[C@@H](CC(=O)O)C(=O)N[C@H](C(=O)N[C@@H](Cc1c[nH]c2ccccc12)C(=O)N[C@@H](Cc1c[nH]c2ccccc12)C(=O)N[C@@H](Cc1ccc2ccccc2c1)C(=O)NCC(=O)N[C@@H](C)C(=O)N[C@@H](CC(=O)O)C(=O)N[C@H](C(=O)N[C@@H](CC(=O)O)C(N)=O)[C@@H](C)O)C(C)C
B8: EDDSDVWW(Obtyr)GADTD (peptide)
peptide: Ac-EDDSDVWW[Tyr(Bzl)]GADTD-NH2
SMILES: CC(=O)N[C@@H](CCC(=O)O)C(=O)N[C@@H](CC(=O)O)C(=O)N[C@@H](CC(=O)O)C(=O)N[C@@H](CO)C(=O)N[C@@H](CC(=O)O)C(=O)N[C@H](C(=O)N[C@@H](Cc1c[nH]c2ccccc12)C(=O)N[C@@H](Cc1c[nH]c2ccccc12)C(=O)N[C@@H](Cc1ccc(OCc2ccccc2)cc1)C(=O)NCC(=O)N[C@@H](C)C(=O)N[C@@H](CC(=O)O)C(=O)N[C@H](C(=O)N[C@@H](CC(=O)O)C(N)=O)[C@@H](C)O)C(C)C
B9: PWAIVWG(N-Me-G)TVSRED (peptide)
peptide: Ac-PWAIVWG[Sar]TVSRED-NH2
SMILES: CC[C@H](C)[C@H](NC(=O)[C@H](C)NC(=O)[C@H](Cc1c[nH]c2ccccc12)NC(=O)[C@@H]1CCCN1C(C)=O)C(=O)N[C@H](C(=O)N[C@@H](Cc1c[nH]c2ccccc12)C(=O)NCC(=O)N(C)CC(=O)N[C@H](C(=O)N[C@H](C(=O)N[C@@H](CO)C(=O)N[C@@H](CCCNC(=N)N)C(=O)N[C@@H](CCC(=O)O)C(=O)N[C@@H](CC(=O)O)C(N)=O)C(C)C)[C@@H](C)O)C(C)C
B10: EDDSDVWW(Omtyr)GADTD (peptide)
peptide: Ac-EDDSDVWW[Tyr(Me)]GADTD-NH2
SMILES: COc1ccc(C[C@H](NC(=O)[C@H](Cc2c[nH]c3ccccc23)NC(=O)[C@H](Cc2c[nH]c3ccccc23)NC(=O)[C@@H](NC(=O)[C@H](CC(=O)O)NC(=O)[C@H](CO)NC(=O)[C@H](CC(=O)O)NC(=O)[C@H](CC(=O)O)NC(=O)[C@H](CCC(=O)O)NC(C)=O)C(C)C)C(=O)NCC(=O)N[C@@H](C)C(=O)N[C@@H](CC(=O)O)C(=O)N[C@H](C(=O)N[C@@H](CC(=O)O)C(N)=O)[C@@H](C)O)cc1
B11: EDDSDVWW(Oetyr)GADTD (peptide)
peptide: Ac-EDDSDVWW[Tyr(Et)]GADTD-NH2
SMILES: CCOc1ccc(C[C@H](NC(=O)[C@H](Cc2c[nH]c3ccccc23)NC(=O)[C@H](Cc2c[nH]c3ccccc23)NC(=O)[C@@H](NC(=O)[C@H](CC(=O)O)NC(=O)[C@H](CO)NC(=O)[C@H](CC(=O)O)NC(=O)[C@H](CC(=O)O)NC(=O)[C@H](CCC(=O)O)NC(C)=O)C(C)C)C(=O)NCC(=O)N[C@@H](C)C(=O)N[C@@H](CC(=O)O)C(=O)N[C@H](C(=O)N[C@@H](CC(=O)O)C(N)=O)[C@@H](C)O)cc1

Starred links: 1 amine or outer side, 2 acyl side, 3 side chain; linkers in the order of their positions; H or OH if unused. Non-standard residues stand in square brackets, D forms with d. Tyr(Bzl) = Obtyr, O-benzyl-L-tyrosine, O=C([C@H](Cc1ccc(OCc2ccccc2)cc1)N[*:1])[*:2]; Tyr(Et) = Oetyr, O-ethyl-L-tyrosine, CCOc1ccc(C[C@H](N[*:1])C(=O)[*:2])cc1; Tyr(Me) = Omtyr, O-methyl-L-tyrosine, COc1ccc(C[C@H](N[*:1])C(=O)[*:2])cc1; Obtyr = O-benzyl-L-tyrosine, O=C([C@H](Cc1ccc(OCc2ccccc2)cc1)N[*:1])[*:2]; Oetyr = O-ethyl-L-tyrosine, CCOc1ccc(C[C@H](N[*:1])C(=O)[*:2])cc1; Phe(4-NH2) = Nc1ccc(C[C@H](N)C(=O)O)cc1; 2Nal = N[C@@H](Cc1ccc2ccccc2c1)C(=O)O; Sar = CNCC(=O)O

Experimental findings from patent publication US20260193293A1, “PEPTIDES CAPABLE OF INHIBITING PROTEIN-PROTEIN INTERACTIONS AT GABAB1A SUBUNIT AND USES THEREOF” (UNIVERSITY OF COPENHAGEN, priority 2022, published 2026) are described below.

Sequence of Sushi domains (SD1/2) protein of the GABAB1a (GB1a) subunit, recombinant (Q9Z0U4 29-158): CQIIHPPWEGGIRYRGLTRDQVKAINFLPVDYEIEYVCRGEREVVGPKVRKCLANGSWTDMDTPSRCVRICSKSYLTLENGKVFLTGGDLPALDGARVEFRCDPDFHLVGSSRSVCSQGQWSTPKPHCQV

One assay addresses Sushi domains (SD1/2) protein of the GABAB1a (GB1a) subunit, recombinant. The assay can be described thus: FP competition.
One may read the Ki as a measure of affinity in units of concentration, obtained from inhibition or displacement. Take B1: the Ki came out at 9.5 nM.
Regarding Ac-EDDYIDWGPTSDDD-NH2 [peptide 19 (Ac-…-NH2)], the Ki came out at 3.8 nM.
In the case of Ac-ETEFIAWGGADTD-NH2 [hybrid peptide Y (Ac-…-NH2)], the Ki amounted to 354 nM.
As to Ac-ETEFIAWYGADTD-NH2 [peptide 37 (Ac-…-NH2)], the inhibition constant Ki was found to be 95 nM.
Regarding Ac-EDDDWIDWYDSDDD-NH2 [peptide 16 (Ac-…-NH2)], the Ki was determined as 3.2 nM.
The same measure, in the same setting: with Ac-EDDSDVWWGPTGDED-NH2 [hybrid peptide X (Ac-…-NH2)] the figure was 62 nM.
Turning to B2, the Ki was 9.3 nM.
Same read-out and setting: the value for Ac-ETEFIAWGPTGDED-NH2 [AJAP-1WT (Ac-…-NH2)] was 31 nM; that for EDDDAIDWYDSDDD (N-terminal acetyl; C-terminal amide; 3-(2-naphthyl)-L-alanine (2Nala) at 5) [peptide 20 (Ac-EDDD(2Nala)…-NH2)] was 1.5 nM.
Still for that read-out and setting: with Ac-EDDSWIWWYGADTD-NH2 [peptide 28 (Ac-…-NH2)] the figure was 18 nM; with Ac-EDDYIDWYDSDDD-NH2 [peptide 18 (Ac-…-NH2)], 4.6 nM.
Still for that read-out and setting: the value for Ac-EDDSWIDWYGADTD-NH2 [peptide 30 (Ac-…-NH2)] was 11 nM; that for B3 was 6.5 nM; that for Ac-EDDSWIWWGPTGDED-NH2 [peptide 27 (Ac-…-NH2)] was 16 nM.
On to B4, for which the Ki is 5.3 nM.
Consider Ac-EDDDWIDWGPTSDDD-NH2 [peptide 17 (Ac-…-NH2)], for which the Ki came out at 4 nM.
Ac-EDDSWIDWGPTGDED-NH2 [peptide 29 (Ac-…-NH2)]: the Ki was determined as 5.6 nM.
B5: the Ki was 5.3 nM.

The target is the same in a further assay. The assay can be described thus: FP competition. This is another data set of the same source.
For B6, the inhibition constant (Ki) was 100 nM.
In the case of Ac-EDDSDVWWGPTGDED-NH2 [hybrid peptide X (Ac-…-NH2)], the fold higher affinity than APPWT was determined as 10 fold.
On to B7, for which the Ki amounted to 100 nM.
On to B8, for which the Ki is 100 nM.
Still for that read-out and setting: the value for Ac-ETEFIAWGPTGDED-NH2 [AJAP-1WT (Ac-…-NH2)] was 32 nM; that for B9 was 525 nM; that for B10 was 100 nM.
Turning to Ac-EDDSWIWWGPTGDED-NH2 [peptide 27 (Ac-…-NH2)], the fold better affinity than 9 came to 3.8 fold.
As for B11, the Ki stood at 100 nM.

For the next assay the target is unchanged. The assay can be described thus: FP competition with AJAP-1probe.
Regarding Ac-EDDSDVWWGGADTDY-NH2 [peptide 13 (…)], the inhibition constant Ki amounted to 581 nM.
As to Ac-ADAEEDDSDVWWGGA-NH2 […], the Ki worked out at 1530 nM.
For the molecule Ac-SADAEEDDSDVWWGG-NH2 [peptide 12 (…)], the Ki was found to be 1300 nM.

The target in the next assay is Sushi domains (SD1/2) protein of GABAB1a (GB1a). The assay can be described thus: FP competition vs TAMRA AJAP-1probe.
Sequence of Sushi domains (SD1/2) protein of GABAB1a (GB1a) (Q9Z0U4 29-158): as above
In the case of B6, the inhibition constant Ki was found to be 102 nM.
Still for that read-out and setting: the value for B7 was 75 nM; that for B8 was 88 nM.
Molecule B9 displayed a Ki of 525 nM.
With B10, the Ki worked out at 109 nM.
B11 registered a Ki of 113 nM.
